Kd data for one molecule are collected here from article PMC9536601 (2022).

For this test, the target named is human prothrombin (FII) (human, UniProt P00734 44-622, gamma-carboxylated glutamate residues in the Gla domain). Briefly: SPR. On the technique in general: In SPR one partner is held on a chip, and binding of the other changes the refractive index at the surface.

B1: Ad1 hexon, on wild-type human adenovirus type 1 virions (natural protein)
chain: ATPSMMPQWSYMHISGQDASEYLSPGLVQFARATETYFSLNNKFRNPTVAPTHDVTTDRSQRLTLRFIPVDREDTAYSYKARFTLAVGDNRVLDMASTYFDIRGVLDRGPTFKPYSGTAYNALAPKGAPNSCEWEQEEPTQEMAEELEDEEEAEEEEAEEEAEAPQADQKVKKTHVYAQAPLAGEKITANGLQIVSDTQTEGNPVFADPTYQPEPQVGESQWNEAEATASGGRVLKKTTPMKPCYGSYARPTNKNGGQGILVANNQGALESKVEMQFFAPSGTAMNERNAVQPSIVLYSEDVNMETPDTHISYKPSKTDENSKAMLGQQAMPNRPNYIAFRDNFIGLMYYNSTGNMGVLAGQASQLNAVVDLQDRNTELSYQLLLDSIGDRTRYFSMWNQAVDSYDPDVRIIENHGTEDELPNYCFPLGGIGVTDTYQGIKSNGNGNPQNWTKNDDFAARNEIGVGNNFALEINLNANLWRNFLYSNIALYLPDKLKYTPTNVEISPNPNSYDYMNKRVVAPGLVDCYINLGARWSLDYMDNVNPFNHHRNAGLRYRSMLLGNGRYVPFHIQVPQKFFAIKNLLLLPGSYTYEWNFRKDVNMVLQSSLGNDLRVDGASIKFDSICLYATFFPMAHNTASTLEAMLRNDTNDQSFNDYLSAANMLYPIPANATNVPISIPSRNWAAFRGWAFTRLKTKETPSLGSGYDPYYTYSGSIPYLDGTFYLNHTFKKVAITFDSSVSWPGNDRLLTPNEFEIKRSVDGEGYNVAQCNMTKDWFLVQMLANYNIGYQGFYIPESYKDRMYSFFRNFQPMSRQVVDDTKYKDYQQVGILHQHNNSGFVGYLAPTMREGQAYPANFPYPLIGKTAVDSITQKKFLCDRTLWRIPFSSNFMSMGALTDLGQNLLYANSAHALDMTFEVDPMDEPTLLYVLFEVFDVVRVHQPHRGVIETVYLRTPFSAGNATT
As to B1, the affinity, expressed as Kd, was 5 nM. That is a single-digit nanomolar value.

The Kd is a measure of binding affinity in units of concentration. Low values mean a tighter complex, high ones a looser complex.
